From publication PMC7456325

Target: T. suis B ΔC26 (Trichuris suis BCL-2-like protein B, C-terminal truncation) (Trichuris suis)
Test: MST; Monolith NT.115; protein labelled with NHS RED, unlabelled synthetic peptide diluted in phosphate-buffered saline; 30 min incubation; 25 °C; 40% LED and 40% MST power; three independent experiments, single binding model

| Binder | Kd [µM] |
| --- | --- |
| SVRAPIRLCDAMFLMCDLFERKFHDR [T. suis protein A BH3 peptide] | > 50 |
| PILPEVNKTALCMRAMGEVFEDRYKT [T. suis protein B BH3 peptide] | > 50 |
